From paper PMC9344649, “Involvement of MdWRKY40 in the defense of mycorrhizal apple against fusarium solani”

How the values were obtained:
MdWRKY40 [1] = molecular target: T1, MdWRKY40 (Malus domestica, UniProt A0A7S5ATZ6 1-302); assay: EMSA; text says not bound; the only printed mutant is of W-box 3, so numbering of 2 and 3 is uncertain; EMSA: binding buffer not specified, 24 °C, 30 min; salt and pH not stated; conditions: protein: recombinant; tags: His tag, pET-32a(+) fusion; blunt
MdWRKY40 [2] = molecular target: T1, MdWRKY40; assay: EMSA; cold probe weakens binding; EMSA: binding buffer not specified, 24 °C, 30 min; salt and pH not stated; conditions: protein: recombinant; tags: His tag, pET-32a(+) fusion; blunt

T1 sequence (A0A7S5ATZ6 entry or part of it): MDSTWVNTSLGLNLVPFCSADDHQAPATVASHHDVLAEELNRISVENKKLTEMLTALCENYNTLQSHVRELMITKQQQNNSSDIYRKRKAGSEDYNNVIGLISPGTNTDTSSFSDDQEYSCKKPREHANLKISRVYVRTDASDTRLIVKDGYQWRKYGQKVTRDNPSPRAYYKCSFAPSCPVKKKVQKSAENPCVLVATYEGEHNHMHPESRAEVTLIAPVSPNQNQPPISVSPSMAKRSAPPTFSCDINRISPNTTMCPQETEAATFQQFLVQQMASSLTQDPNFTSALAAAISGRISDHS

Row | Binder | binding result (MdWRKY40 [1]) | binding result (MdWRKY40 [2])
1 | proMdGLU W-box 3 probe (dsDNA) DNA 1: CTTTCCCCCCTATAAATACTTTGACCACCAACTCCCCAATCCTCCA DNA 2: TGGAGGATTGGGGAGTTGGTGGTCAAAGTATTTATAGGGGGGAAAG | no binding | 
2 | proMdGLU W-box 2 probe (dsDNA) DNA 1: ATCACAAATAAAATTGATATTTGACCAACTACATGCCACGATCACA DNA 2: TGTGATCGTGGCATGTAGTTGGTCAAATATCAATTTTATTTGTGAT |  | binds
